Laboratory results: patent US20240321457A1, “SYSTEMS FOR AND METHODS OF TREATMENT SELECTION” (THE REGENTS OF THE UNIVERSITY OF CALIFORNIA, priority 2020, published 2024)

Biological target: UBE2N (human) (UniProt P61088)
Experiment: AP-MS, PPI score from compPASS and SAINTexpress, MDA-MB-231 cells

Sequence of UBE2N (human) (P61088 whole entry): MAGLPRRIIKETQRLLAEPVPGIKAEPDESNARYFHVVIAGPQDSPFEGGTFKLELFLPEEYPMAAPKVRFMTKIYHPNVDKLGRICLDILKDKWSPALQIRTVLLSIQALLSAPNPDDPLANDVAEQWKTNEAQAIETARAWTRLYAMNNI

- PPI score: < 0.6
Substance: BRCA1 isoform lacking exon 11 (from UniProt P38398 1-721) (enzyme)
